This is an account of results in patent US20110305749A1, “HIV-1 Envelope Polypeptides for HIV Vaccine” (priority 2008, published 2011).

Where two headings read alike, the source gives them in different places.

The subject of assay [1] is Human Peripheral Blood Mononuclear Cells (PBMC). The assay can be described thus: Immunosuppression of selected peptides: Con A stimulated lymphocyte proliferation (EdU incorporation). It is filed as cell-based. Conditions: Con A (5 ug/mL); for inhibition profile of proliferation at various peptide concentrations: dose-dependence (FIG. 11); for inhibition of lymphocyte proliferation: peptide concentration of 50 uM, 72 hrs, relative to Con A stimulated cells without peptide (FIG. 10). The text has this:
The peptides are dimerized via the C-terminal Cysteines and added at the concentrations indicated below.

The subject of a further assay is Human PBMC. The assay can be described thus: Mixed leukocyte reaction: PBMC stimulated by Jurkat cells expressing HIV envelope variants. Conditions: PBMC with Mitomycin C arrested Jurkat stimulator cells expressing the envelope, 1:1, 96 hrs (FIG. 12).
Another assay deals with IFN-gamma. The experiment in a line: Cytokine modulation: IFN-gamma in supernatant of ConA stimulated PBMC (ELISA). As to conditions: 50 uM peptide, Con A stimulation of PBMC, 72 hrs, ELISA (FIG. 14).
The next assay relates to TNF-alpha. The experiment in a line: Cytokine modulation: TNF-alpha in supernatant of ConA stimulated PBMC (ELISA). Conditions: 50 uM peptide, Con A stimulation of PBMC, 72 hrs, ELISA (FIG. 14). Background: ELISA stands for enzyme-linked immunosorbent assay.
The next assay concerns BAB/No Ag. Conditions: R, i.m.; cited from earlier work.
Assay [2] deals with HIV-1. As to conditions: M, cited from earlier work.
In the next assay the test system is Influenza. Conditions: M, i.m.; cited from earlier work.
The conditions of assay [3]: HSV-3; M, i.m./i.d.; cited from earlier work.
In assay [4] the test system is HIV-1. Conditions: C, i.m.; cited from earlier work.
In a further assay the test system is β-gal. As to conditions: M, i.m.; cited from earlier work.
The test system of a further assay is HSV-2. Conditions: M, i.m.; cited from earlier work.

Protocol for Human PBMC: The experiment utilizes Human PBMC prepared fresh from healthy donors. These are stimulated by adding a human T cell line (Jurkat) at a 1:1 ratio. The jurkat cells have been irreversible arrested by incubating them with 50 ug/mL Mitomycin C for 1 hour prior to PBMC stimulation. Cultures are maintained and lymphocyte proliferation is measured 96 hrs later by EdU incorporation and Click-iT labelling with Oregon Green (Invitrogen, Denmark) as recommended by the manufacturer. The degree of activated lymphocytes is proportional to the flourescence detection.
Protocol for IFN-gamma: (§1) Donor PBMC's were maintained at 10^5 cells/well in a 96-well. […] After 72 hrs, lymphocyte proliferation was measured and supernatants analysed by ELISA for levels of the proinflammatory cytokines, IFN-gamma (FIG. 14 grey bar) and TNF-alpha (FIG. 14 black bar).
Protocol for TNF-alpha: as §1

Consider “LQARILAVETLIQNQQLLNLWGC [HIV M/O chimera]”, for which, in [1], the “inhibition profile of proliferation at various peptide concentrations” value is listed as “less steep” and the “inhibition of lymphocyte proliferation” value worked out at 22%. The “lymphocyte proliferation (activation of PBMC)” value in the assay with Human PBMC is “decrease is relieved”.
Regarding LQARVLAVERYLKDQQLLGIWGC [CS-3], the “inhibition of lymphocyte proliferation” value in assay [1] is 82%. For the same molecule, in the assay on IFN-gamma, the IFN-γ secretion entry is listed as “significantly reduces”. The TNF-α secretion result with TNF-alpha is reported as “significantly reduces”.
In the case of LQARVLAVERYLKDQQLLRIWGC [HIV G19R], in assay [1], the “inhibition profile of proliferation at various peptide concentrations” value is recorded as “less steep” and the “inhibition of lymphocyte proliferation” value worked out at 15%.
For the molecule “LQNRRGLDLLFLKEGGLC (HIV) [CKS-17, reference compound]”, the “inhibition of lymphocyte proliferation” value in assay [1] is 93%.
As to MCP-1, in the assay with BAB/No Ag, the “Effects: Ab/IgG” value was “↑^e” and the “Effects: Protection” value is “↑”.
As for RANTES, the “Effects: CTL” value in the assay with HIV-1 [2] (i.m.) is on record as “↑”. In the assay with BAB/No Ag, the “Effects: Ab/IgG” value was “↑^e” and the “Effects: Protection” value is recorded as “=”.

B1: MIP-1β (protein, UniProt P14097 24-92, looked up)
C-C motif chemokine 4: APMGSDPPTSCCFSYTSRQLHRSFVMDYYETSSLCSKPAVVFLTKRGRQICANPSEPWVTEYMSDLELN
B1: in the assay on BAB/No Ag, the “Effects: Ab/IgG” value was “↑^e” and the “Effects: Protection” value was “↓”.

B2: CD86 (protein, UniProt P42082 24-309, looked up)
T-lymphocyte activation …: VSVETQAYFNGTAYLPCPFTKAQNISLSELVVFWQDQQKLVLYEHYLGTEKLDSVNAKYLGRTSFDRNNWTLRLHNVQIKDMGSYDCFIQKKPPTGSIILQQTLTELSVIANFSEPEIKLAQNVTGNSGINLTCTSKQGHPKPKKMYFLITNSTNEYGDNMQISQDNVTELFSISNSLSLSFPDGVWHMTVVCVLETESMKISSKPLNFTQEFPSPQTYWKEITASVTVALLLVMLLIIVCHKKPNQPSRPSNTASKLERDSNADRETINLKELEPQIASAKPNAE
In the case of B2, in the assay with HIV-1 [2] (i.m.), the “Effects: Ab/IgG” value is given as “=”, the “Effects: CTL” value is recorded as “↑”, the “Effects: DTH” value was “↑” and the “Effects: IgG1/IgG2a” value is recorded as “=”. Also, the “Effects: CTL” value with Influenza is listed as “↑”. In [3], the “Effects: Ab/IgG” value is recorded as “=”, the “Effects: DTH” value is recorded as “=”, the “Effects: IgG1/IgG2a” value is listed as “=” and the “Effects: Protection” value is “=”. Besides, the “Effects: CTL” value with HIV-1 [4] was “↑”.

B3: MIP-1α (protein, UniProt P10855 24-92, looked up)
C-C motif chemokine 3: APYGADTPTACCFSYSRKIPRQFIVDYFETSSLCSQPGVIFLTKRNRQICADSKETWVQEYITDLELNA
For the molecule B3, in the assay with HIV-1 [2] (i.m./i.n.), the “Effects: Ab/IgG” value is “↑”, the “Effects: CTL” value was “↑”, the “Effects: DTH” value is reported as “↑” and the “Effects: IgG1/IgG2a” value is given as “↓”. Further, in the assay with HIV-1 [2] (i.m.), the “Effects: CTL” value is reported as “↑” and the “Effects: IgG1/IgG2a” value was “↑”. In the assay on BAB/No Ag, the “Effects: Ab/IgG” value is reported as “↑^e” and the “Effects: Protection” value was “↑”.

B4: CD40L (protein, UniProt P27548 112-260, looked up)
CD40 ligand, soluble form: MQRGDEDPQIAAHVVSEANSNAASVLQWAKKGYYTMKSNLVMLENGKQLTVKREGLYYVYTQVTFCSNREPSSQRPFIVGLWLKPSSGSERILLKAANTHSSSQLCEQQSVHLGGVFELQAGASVFVNVTEASQVIHRVGFSSFGLLKL
On to B4, for which, in the assay on β-gal, the “Effects: Ab/IgG” value was “↑”, the “Effects: CTL” value is listed as “↑”, the “Effects: IgG1/IgG2a” value was “↓” and the “Effects: Protection” value was “↑”.

B5: TCA-3 (protein, UniProt P10146 24-92, looked up)
C-C motif chemokine 1: KSMLTVSNSCCLNTLKKELPLKFIQCYRKMGSSCPDPPAVVFRLNKGRESCASTNKTWVQNHLKKVNPC
For B5, in the assay with HIV-1 [2] (i.m.), the “Effects: Ab/IgG” value is given as “↓”, the “Effects: CTL” value is reported as “↑”, the “Effects: DTH” value was “↑” and the “Effects: IgG1/IgG2a” value is on record as “↓”.

B6: CD80 (protein, UniProt Q00609 38-306, looked up)
T-lymphocyte activation …: VDEQLSKSVKDKVLLPCRYNSPHEDESEDRIYWQKHDKVVLSVIAGKLKVWPEYKNRTLYDNTTYSLIILGLVLSDRGTYSCVVQKKERGTYEVKHLALVKLSIKADFSTPNITESGNPSADTKRITCFASGGFPKPRFSWLENGRELPGINTTISQDPESELYTISSQLDFNTTRNHTIKCLIKYGDAHVSEDFTWEKPPEDPPDSKNTLVLFGAGFGAVITVVVIVVIIKCFCKHRSCFRRNEASRETNNSLTFGPEEALAEQTVFL
With B6, in the assay with HSV-2, the “Effects: Ab/IgG” value was “=”; the “Effects: DTH” value was “= and ↑”; the “Effects: IgG1/IgG2a” value is given as “=”; the “Effects: Protection” value is “= and ↑”. Also, in the assay on HIV-1 [2] (i.m.), the “Effects: Ab/IgG” value is listed as “=”, the “Effects: CTL” value is reported as “=” and the “Effects: DTH” value is listed as “=”. For the same molecule, the “Effects: CTL” value in the assay with Influenza is reported as “=”.
